Consider 2 substances from publication PMC4386032.

The assay addresses F-actin (source not stated for this experiment: rabbit muscle or yeast) (not stated (rabbit muscle or yeast actin purified)) (UniProt P68135).

Chain of Vps1 (yeast dynamin), wild type, recombinant His tag fusion (P21576 whole entry, the tested form may be a part): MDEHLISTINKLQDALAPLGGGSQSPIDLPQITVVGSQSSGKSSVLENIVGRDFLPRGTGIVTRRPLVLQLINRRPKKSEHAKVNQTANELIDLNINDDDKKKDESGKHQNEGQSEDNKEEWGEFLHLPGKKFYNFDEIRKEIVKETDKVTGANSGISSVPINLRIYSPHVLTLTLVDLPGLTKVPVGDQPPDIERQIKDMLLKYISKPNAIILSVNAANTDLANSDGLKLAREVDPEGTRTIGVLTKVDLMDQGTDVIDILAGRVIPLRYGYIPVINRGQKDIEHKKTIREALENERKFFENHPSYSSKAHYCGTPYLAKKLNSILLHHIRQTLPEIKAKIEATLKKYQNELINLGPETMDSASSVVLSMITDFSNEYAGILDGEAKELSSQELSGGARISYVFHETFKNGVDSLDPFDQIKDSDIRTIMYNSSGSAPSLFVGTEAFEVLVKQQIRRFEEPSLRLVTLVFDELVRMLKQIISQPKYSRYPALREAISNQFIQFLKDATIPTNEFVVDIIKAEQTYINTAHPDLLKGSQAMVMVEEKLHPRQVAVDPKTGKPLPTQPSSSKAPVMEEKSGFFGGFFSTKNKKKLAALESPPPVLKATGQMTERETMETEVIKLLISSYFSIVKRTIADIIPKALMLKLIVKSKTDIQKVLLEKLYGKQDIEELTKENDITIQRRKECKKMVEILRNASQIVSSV

Take “Vps1 RR457,458EE, recombinant His tag fusion (from UniProt P21576 1-704) (natural protein)”: the EM: proportion of actin filaments in bundles of three or more in the presence of Vps1 RR-EE is 8%.

Consider “Vps1 (yeast dynamin), wild type, recombinant His tag fusion (from UniProt P21576 1-704) (natural protein)”, for which the EM: proportion of Vps1 structures that are double rings after incubation with actin turned out to be 55%, the EM: proportion of actin in bundles of three or more filaments in the presence of Vps1 amounted to 58% and the EM: proportion of actin in bundles of two or more filaments in the presence of Vps1 (23% without) is more than 80%.
